Legend:
SARS-CoV RBD protein = SARS-CoV RBD protein (Severe acute respiratory syndrome …, UniProt P59594); test: cell-based or functional assay
[1] = biological target: T1, SARS-CoV-2 WT RBD protein (SARS-CoV-2 (WT), UniProt P0DTC2); test: ELISA
[2] = biological target: T1, SARS-CoV-2 WT RBD protein; test: SPR

Binder | binding result [1] | other results
STS165 (full-length IgG form) (antibody, V domains shown) VH: EVQLVESGGGVVRPGGSLRLSCAASGFTFDDYGMSWVRQAPGKGLEWVSGINWNGGSTGYADSVKGRFTISRDNAKNSLYLQMNSLRAEDTALYHCARVGYCGGDCYSLSLAGFPDYWGQGTLVTVSS VL: not shown |  | pseudovirus neutralisation of SARS-CoV, IC50 (HEK-293T-hACE2 cells, luciferase) (SARS-CoV RBD protein): 2.09 µg/mL
EY6A (antibody, V domains shown) VH: EVQLVESGGGVVQPGRSLRLSCAASAFTFSSYDMHWVRQAPGKGLEWVAVISYDGSNKYYADSVKGRFTISRDNSKNTLYLQMNSLRAEDTAVYYCAKDGGKLWVYYFDYWGQGTLVTVSS VL: not shown | binds | 
H014 (antibody, V domains shown) VH: EVQLVQSGAEVKKPGATVKISCKVSGYSFSNYYIHWVKQAPGKSLEWIGYIDPFNGGTSDNLKFKGAATLTADTSTDTAYMELSSLRSEDTAVYYCARSEYDPYYVMDYWGQGTTVTVSS VL: IVLTQSPFQSVSPKEKVTITCRASQSISSNLHWYQQKPDQSPKLLIKYASQSISGIPSRFSGSGSGTDFTLTINSLEAEDFGIYFCQQTNFWPYIFGQGTKLEIL | binds | 
S2A4 (antibody, V domains shown) VH: EVQLVESGGGLVQPGGSLRLSCAASGFTFSSYWMNWVRQAPGKGLEWVANIKQDGSEKYYVDSVKGRFTISRDNAKNSLFLQMNSLRAEDTAVYYCARVWWLRGSFDYWGQGTLVTVSS VL: NFMLTQPHSVSESPGKTVTISCTGSSGSIASNYVQWYQQRPGSAPTTVIYEDNQRPSGVPDRFSGSIDSSSNSASLTISGLKTEDEADYYCQSYDSSNHVVFGGGTKLTVL | binds | 
STS165 Fab form (Fab, V domains shown) VH: EVQLVESGGGVVRPGGSLRLSCAASGFTFDDYGMSWVRQAPGKGLEWVSGINWNGGSTGYADSVKGRFTISRDNAKNSLYLQMNSLRAEDTALYHCARVGYCGGDCYSLSLAGFPDYWGQGTLVTVSS VL: not shown |  | fold decrease of binding affinity against the IgG form [2]: > 50 fold

From paper PMC9116965 (iScience, 2022)
